In PMC6345366 (Chemical communications (Cambridge, England), 2017) one finds dH and Kd data, which are given here for 2 molecules.

Square brackets hold non-standard residues; d marks the D form. Ends that are not written are not given here.

The term Kd denotes the equilibrium constant for the complex coming apart.

Common to all, as to experiment: ITC
For assay [1], the target named is T1, KDM4A tandem tudor domain (human).
T1 sequence (O75164 whole entry, looked up): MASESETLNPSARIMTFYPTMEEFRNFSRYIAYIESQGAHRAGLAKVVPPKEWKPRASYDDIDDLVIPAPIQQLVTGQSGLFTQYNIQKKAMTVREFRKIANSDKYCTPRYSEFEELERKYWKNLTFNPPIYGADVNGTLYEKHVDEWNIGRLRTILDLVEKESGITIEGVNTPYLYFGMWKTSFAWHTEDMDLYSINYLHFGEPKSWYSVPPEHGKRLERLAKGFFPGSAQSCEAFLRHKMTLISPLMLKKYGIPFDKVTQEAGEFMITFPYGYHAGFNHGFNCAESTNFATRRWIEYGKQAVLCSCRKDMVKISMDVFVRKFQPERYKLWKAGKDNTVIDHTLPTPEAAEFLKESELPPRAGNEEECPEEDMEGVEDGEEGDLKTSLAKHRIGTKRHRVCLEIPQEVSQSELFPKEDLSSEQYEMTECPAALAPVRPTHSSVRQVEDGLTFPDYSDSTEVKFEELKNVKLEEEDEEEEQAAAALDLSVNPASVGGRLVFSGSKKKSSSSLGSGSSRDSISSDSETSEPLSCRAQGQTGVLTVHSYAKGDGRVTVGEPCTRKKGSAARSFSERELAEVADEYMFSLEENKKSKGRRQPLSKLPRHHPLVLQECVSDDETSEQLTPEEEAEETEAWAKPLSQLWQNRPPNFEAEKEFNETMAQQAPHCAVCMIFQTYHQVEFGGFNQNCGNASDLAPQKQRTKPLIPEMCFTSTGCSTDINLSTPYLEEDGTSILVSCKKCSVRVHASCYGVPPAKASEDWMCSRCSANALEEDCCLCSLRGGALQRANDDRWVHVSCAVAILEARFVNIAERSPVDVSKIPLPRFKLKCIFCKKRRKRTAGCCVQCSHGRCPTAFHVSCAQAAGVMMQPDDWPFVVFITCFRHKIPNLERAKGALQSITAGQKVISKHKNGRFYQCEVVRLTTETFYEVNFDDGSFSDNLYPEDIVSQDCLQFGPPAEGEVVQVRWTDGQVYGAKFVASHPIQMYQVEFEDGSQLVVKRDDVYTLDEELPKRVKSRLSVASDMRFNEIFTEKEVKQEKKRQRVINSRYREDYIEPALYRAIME

For assay [2], the target named is SGF29 tandem tudor domain.
A further assay concerns the target T2, TAF3 PHD zinc finger.
T2 sequence (Q5VWG9 whole entry, species assumed, looked up): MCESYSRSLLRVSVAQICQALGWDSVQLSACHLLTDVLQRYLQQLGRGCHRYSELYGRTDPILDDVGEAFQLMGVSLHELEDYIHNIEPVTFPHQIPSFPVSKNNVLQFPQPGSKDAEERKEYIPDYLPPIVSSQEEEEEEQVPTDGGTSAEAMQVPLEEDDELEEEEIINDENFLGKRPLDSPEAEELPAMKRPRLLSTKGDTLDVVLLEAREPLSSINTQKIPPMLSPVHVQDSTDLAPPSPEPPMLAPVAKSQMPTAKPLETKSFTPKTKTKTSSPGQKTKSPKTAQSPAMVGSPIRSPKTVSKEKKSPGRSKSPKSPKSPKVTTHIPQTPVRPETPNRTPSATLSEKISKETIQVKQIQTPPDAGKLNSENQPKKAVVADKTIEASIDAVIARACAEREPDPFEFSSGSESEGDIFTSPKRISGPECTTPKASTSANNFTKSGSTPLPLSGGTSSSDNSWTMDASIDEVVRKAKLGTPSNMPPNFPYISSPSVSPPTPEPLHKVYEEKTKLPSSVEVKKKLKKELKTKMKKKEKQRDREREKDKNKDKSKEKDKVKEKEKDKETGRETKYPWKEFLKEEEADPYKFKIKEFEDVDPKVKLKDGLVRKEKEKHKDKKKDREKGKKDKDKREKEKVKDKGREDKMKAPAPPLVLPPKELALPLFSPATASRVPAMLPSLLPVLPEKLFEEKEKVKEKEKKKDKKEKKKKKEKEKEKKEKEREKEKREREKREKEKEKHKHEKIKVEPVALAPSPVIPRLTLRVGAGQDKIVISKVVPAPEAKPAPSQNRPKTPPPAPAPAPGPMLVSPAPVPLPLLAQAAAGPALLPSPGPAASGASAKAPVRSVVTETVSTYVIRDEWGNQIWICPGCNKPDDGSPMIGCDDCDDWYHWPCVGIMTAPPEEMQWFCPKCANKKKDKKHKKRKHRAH

Assay [3] addresses T3, KDM5A PHD3 (third PHD zinc finger of KDM5A) (UniProt P29375 1609-1659).
T3 sequence: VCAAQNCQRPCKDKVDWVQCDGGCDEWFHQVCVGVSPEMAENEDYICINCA

Chain of SGF29 tandem tudor domain (Q96ES7 whole entry, the tested form may be a part): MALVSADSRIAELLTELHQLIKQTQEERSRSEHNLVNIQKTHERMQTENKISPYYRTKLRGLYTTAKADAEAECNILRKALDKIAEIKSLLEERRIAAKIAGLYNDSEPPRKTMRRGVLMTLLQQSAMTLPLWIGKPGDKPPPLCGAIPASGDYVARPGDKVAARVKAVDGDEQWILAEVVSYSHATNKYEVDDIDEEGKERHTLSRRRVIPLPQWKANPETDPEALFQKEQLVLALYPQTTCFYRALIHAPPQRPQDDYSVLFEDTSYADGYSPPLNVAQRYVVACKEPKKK

Regarding ARTK(Me3)QTARKS [10-mer histone peptide L-H3K4me3], the dH was -13.1 kcal/mol in assay [1], -7.7 kcal/mol in assay [2], -10.1 kcal/mol in the assay with TAF3 PHD zinc finger and -11.1 kcal/mol in assay [3]. For the same molecule, the Kd in assay [3] was 110 nM.
Consider ART[dK](Me3)QTARKS [10-mer histone peptide D-H3K4me3], for which, in assay [3], binding was characterised by a dissociation constant (Kd) of 1200 nM and the dH was -7.8 kcal/mol.
